The target in assay [1] is IL-TIF protein (SEQ ID NO:3) (human) (UniProt Q9GZX6). Description: cell-based or functional assay.
The target in assay [2] is T1, CRF2-4/zcytor11 heterodimeric receptor on BaF3/CRF2-4/zcytor11 cells (human, UniProt Q08334 20-325).
T1 sequence 1: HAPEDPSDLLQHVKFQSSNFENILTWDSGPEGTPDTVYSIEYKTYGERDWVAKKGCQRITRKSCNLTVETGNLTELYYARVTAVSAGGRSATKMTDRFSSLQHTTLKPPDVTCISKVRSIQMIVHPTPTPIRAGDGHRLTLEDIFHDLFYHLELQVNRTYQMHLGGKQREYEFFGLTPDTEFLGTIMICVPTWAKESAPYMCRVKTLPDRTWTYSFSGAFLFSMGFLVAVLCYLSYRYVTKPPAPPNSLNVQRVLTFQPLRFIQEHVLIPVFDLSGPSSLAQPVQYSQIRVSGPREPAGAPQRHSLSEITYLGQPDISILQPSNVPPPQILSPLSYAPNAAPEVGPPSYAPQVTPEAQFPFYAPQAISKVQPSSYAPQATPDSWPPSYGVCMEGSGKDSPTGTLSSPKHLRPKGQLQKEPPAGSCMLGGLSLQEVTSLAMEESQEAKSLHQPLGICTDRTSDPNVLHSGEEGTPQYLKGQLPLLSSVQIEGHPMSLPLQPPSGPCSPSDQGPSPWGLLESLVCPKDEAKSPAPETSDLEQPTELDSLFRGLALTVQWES
T1 sequence 2: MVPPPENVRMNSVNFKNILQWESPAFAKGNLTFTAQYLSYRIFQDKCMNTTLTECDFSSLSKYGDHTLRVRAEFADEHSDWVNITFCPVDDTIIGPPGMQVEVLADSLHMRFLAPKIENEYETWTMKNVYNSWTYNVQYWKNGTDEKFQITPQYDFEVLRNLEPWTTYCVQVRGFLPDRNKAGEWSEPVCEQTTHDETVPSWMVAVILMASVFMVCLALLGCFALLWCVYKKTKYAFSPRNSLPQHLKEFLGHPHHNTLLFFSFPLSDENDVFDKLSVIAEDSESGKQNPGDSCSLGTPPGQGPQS
Description: cell-based or functional assay.

For “CRF2-4/zcytor11-Fc4 soluble heterodimer receptor (Fc fusion)”, in assay [1], the concentration at which inhibition of IL-TIF-induced proliferation was barely detectable came to 63 ng/mL, the concentration giving complete inhibition of IL-TIF-induced proliferation came out at 8 µg/mL and the concentration giving partial inhibition of IL-TIF-induced proliferation lay in the range of 0.125 to 4 µg/mL.

B1: IL-TIF-CEE polypeptide purified from BHK 570 cells (ligand)
chain: APISSHCRLDKSNFQQPYITNRTFMLAKEASLADNNTDVRLIGEKLFHGVSMSERCYLMKQVLNFTLEEVLFPQSDRFQPYMQEVVPFLARLSNRLSTCHIEGDDLHIQRNVQKLKDTVKKLGESGEIKAIGELDLLFMSLRNACIEYMPME
On to B1, for which, in assay [2], the “proliferation of BaF3/CRF2-4/zcytor11 cells (Alamar Blue), fold induction at 0.06 ng/ml IL-TIF-CEE” value came to 2 fold and the “proliferation of BaF3/CRF2-4/zcytor11 cells (Alamar Blue), fold over background at 50 ng/ml IL-TIF-CEE” value was about 15 fold.

B2: IL-TIF protein (SEQ ID NO:3) (ligand)
chain: APISSHCRLDKSNFQQPYITNRTFMLAKEASLADNNTDVRLIGEKLFHGVSMSERCYLMKQVLNFTLEEVLFPQSDRFQPYMQEVVPFLARLSNRLSTCHIEGDDLHIQRNVQKLKDTVKKLGESGEIKAIGELDLLFMSLRNACI
On to B2, for which the “proliferation of BaF3/CRF2-4/zcytor11 cells (Alamar Blue) at 100 pg/ml IL-TIF” value in assay [2] stood at 13 fold.

The values above are taken from patent US20040023341A1 (ZymoGenetics, published 2004).
